Measurements published in the supplement of paper PMC7877785.
± gives the uncertainty stated by the source.

Test: self-splicing fitness, log relative to wild type (ln ratio); higher = more splicing; Tetrahymena group I intron in knt gene, E. coli kanamycin selection, DiMSum; sequences stand for … in CUCUCU…GGAGGGAAAAGUUAUCAGGCAUGCACCUGGUAGCUAGUCUUUAAACCAAUAGAUUGCAUCGGUUUAAAAGGCAAGACCGUCAAAUUGCGGGAAAGGGGUCAACAGCCGUUCAGUACCAAGUCUCAGGGGAAACUUUGAGAUGGCCUUGCAAAGGGUAUGGUAAUAAGCUGACGGACAUGGUCCUAACCACGCAGCCAAGUCCUAAGUCAACAGAUCUUCUGUUGAUAUGGAUGCAGUUCACAGACUAAAUGUCGGUCGGGGAAGAUGUAUUCUUCUCAUAAGAUAUAGUCGGACCUCUCCUUAAUGGGAGCUAGCGGAUGAAGUGAUGCAACACUGGAGCCGCUGGGAACUAAUUUGUAUGCGAAAGUAUAUUGAUUAGUUUUGGAGUACUCGUGGUCG
How it was run: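 Colonies from six replicate transformations of E. coli BL21(DE3) were pooled and amplicon-sequenced on an Illumina HiSeq 2500. The library placed an intron with all eight P1ex-region nucleotides randomised inside the knt kanamycin-resistance gene on pET-22b(+), and cells grew overnight at 37°C or 30°C on LB agar with or without 25 μg/mL kanamycin (plus 100 μg/mL carbenicillin, 50 μM IPTG, 0.2% rhamnose). Fitness is the DiMSum error-weighted combination of wild-type-normalised replicate fold changes, kanamycin versus none.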

| Sequence | self-splicing fitness (ln) (30 °C) | self-splicing fitness (ln) (37 °C) |
| --- | --- | --- |
| UGGUAGCAAUAUUACGUUAA | -3.27 ± 0.21 | -1.78 ± 0.17 |
| AUGUAGCAAUAUUACGGUUA | -0.747 ± 0.17 | -0.518 ± 0.14 |
| AGACAGCAAUAUUACGGGUG | -3.07 ± 0.09 | -2.37 ± 0.1 |
| CAAGAGCAAUAUUACGAUUG | -2.26 ± 0.13 | -1.86 ± 0.15 |
| UUUGAGCAAUAUUACGCUUC | -2.18 ± 0.31 | -2.53 ± 0.44 |
| CUAAAGCAAUAUUACGAUAC |  | -2.32 ± 0.31 |
| ACUGAGCAAUAUUACGCGUC | -4.21 ± 0.29 | -2.35 ± 0.21 |
| GGUAAGCAAUAUUACGCGGA | -0.857 ± 0.18 | -2.25 ± 0.2 |
| UAUUAGCAAUAUUACGAGUG | -0.139 ± 0.069 | 0.196 ± 0.087 |
| AGUCAGCAAUAUUACGCGAA | -1.21 ± 0.17 | -0.704 ± 0.15 |
| CCUUAGCAAUAUUACGCCCG | -1 ± 0.13 | -1.49 ± 0.21 |
| CUCCAGCAAUAUUACGAACA | -3.95 ± 0.43 | -2.23 ± 0.21 |
| UUCUAGCAAUAUUACGGUUA | -1.7 ± 0.11 | -0.789 ± 0.093 |
| CGCCAGCAAUAUUACGUAGA | -1.25 ± 0.086 | -1.18 ± 0.13 |
| UUUAAGCAAUAUUACGGCUA | -0.342 ± 0.084 | 0.291 ± 0.1 |
| UCAGAGCAAUAUUACGCUGC |  | -0.708 ± 0.32 |
| AUAUAGCAAUAUUACGAAUG | -1.77 ± 0.16 | -1.54 ± 0.18 |
| UCAAAGCAAUAUUACGGCUG | -0.827 ± 0.056 | 0.231 ± 0.078 |
| GGGAAGCAAUAUUACGGCGA | -0.443 ± 0.12 | 0.0664 ± 0.12 |
| CGCCAGCAAUAUUACGUCAA | -2.51 ± 0.17 | -2.32 ± 0.17 |
| GGAGAGCAAUAUUACGAACA |  | -1.93 ± 0.22 |
| GAAGAGCAAUAUUACGAUGG | -3.18 ± 0.17 | -2.1 ± 0.23 |
| UCGCAGCAAUAUUACGACAG | -2.6 ± 0.25 | -0.246 ± 0.35 |
| GUAAAGCAAUAUUACGCUUU | -3.46 ± 0.23 | -1.8 ± 0.27 |
| GCGCAGCAAUAUUACGUCCC | -1.14 ± 0.3 | 0.234 ± 0.2 |

| Sequence | self-splicing fitness (ln) (30 °C) | self-splicing fitness (ln) (37 °C) |
| --- | --- | --- |
| CUAUAGCAAUAUUACGAUAG |  | -2.54 ± 0.39 |
| UUAAAGCAAUAUUACGGACA | -0.00448 ± 0.072 | 0.068 ± 0.11 |
| GCCAAGCAAUAUUACGUACG | -1.79 ± 0.078 | -1.56 ± 0.11 |
| AAGUAGCAAUAUUACGACCU | 0.0875 ± 0.13 | -0.703 ± 0.17 |
| CCACAGCAAUAUUACGGAUA | -2.27 ± 0.12 | -2.68 ± 0.18 |
| CCGCAGCAAUAUUACGGGCC | -2.9 ± 0.25 | -2.34 ± 0.29 |
| CGGAAGCAAUAUUACGGUUU | -4.42 ± 0.36 | -3.88 ± 0.31 |
| CCAGAGCAAUAUUACGACGC | -4.17 ± 0.34 | -2.11 ± 0.28 |
| AUGUAGCAAUAUUACGGUGA | -1.57 ± 0.13 | -1.52 ± 0.16 |
| UACAAGCAAUAUUACGUCAG | -2.54 ± 0.14 | -2 ± 0.15 |
| AGGAAGCAAUAUUACGUUAC | -2.66 ± 0.14 | -3.18 ± 0.28 |
| CUUCAGCAAUAUUACGCGCA | -1.93 ± 0.29 | 0.383 ± 0.28 |
| CGGUAGCAAUAUUACGGCGC | -2.04 ± 0.23 | -1.95 ± 0.24 |
| GAGCAGCAAUAUUACGCAGA | -3.22 ± 0.21 | -0.954 ± 0.1 |
| GAUAAGCAAUAUUACGAACG | -1.22 ± 0.14 | -0.754 ± 0.17 |
| GUCGAGCAAUAUUACGCGUA | -1.26 ± 0.14 | -0.913 ± 0.11 |
| UAGCAGCAAUAUUACGAUGU | -3.82 ± 0.21 | -2.5 ± 0.2 |
| GGUCAGCAAUAUUACGGUAG | -2.15 ± 0.18 | -0.967 ± 0.19 |
| GUGCAGCAAUAUUACGGUUA | -0.723 ± 0.092 | -0.164 ± 0.089 |
| AAUCAGCAAUAUUACGUUUG | -2.11 ± 0.092 | -1.94 ± 0.13 |
| AUGGAGCAAUAUUACGACAC | -1.26 ± 0.32 | -1.08 ± 0.26 |
| CUUGAGCAAUAUUACGCGUU | -4.07 ± 0.39 | -2.14 ± 0.23 |
| AGUAAGCAAUAUUACGGUAU | -2.52 ± 0.17 | -1.35 ± 0.13 |
| ACGAAGCAAUAUUACGCCUC | -2.93 ± 0.31 | -1.77 ± 0.47 |
